The record followed here is paper PMC12015630.

The target of the experiment is LmrR_V15aY. The experiment can be described thus: SEC; purified LmrR_V15aY after affinity chromatography; conditions not shown (Fig. S2, ESI).

In the case of LmrR_V15aY (enzyme), the stoichiometry N (usually the number of molecules, sites or subunits per partner or assembly) turned out to be 2.
